The values that follow come from the supplement of paper PMC9170038.

This data set relates to MS2 coat protein. The data set is described as follows: apparent KD of MS2 coat protein; designed switch direction (-1 OFF switch, 1 ON switch): -1; higher = weaker reporter binding. In outline:
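Designed RNA switches with common flanks were made on Illumina chips by stalled E. coli RNA polymerase. Titration with SNAP-549-labelled MS2 coat protein doubled from 0.7 or 1.5 nM up to 3 µM. Apparent KD is each design's median over clusters after curve-fitting normalised fluorescence.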

The mark [1] stands for this setting: Eterna round: R95, input ligand: microRNA oligo, concentration not stated.
Where [2] appears, read: input ligand: microRNA oligo, concentration not stated.

Turning to “UUUAAUUUUUUUUUUUUACAAGCUUUUUGCUCGUCUUAUACAUGAGGAUCACCCAUGUGGGUGGAGGAUAAAUUAUC [JMF 35] (puzzle: Sensor v3, turn-off variant 2)”, the “apparent KD of MS2 coat protein” value is 0.0606 µM (Eterna round: R95, input ligand: FMN 200 uM); 0.0454 µM under setting [1]; 0.0939 µM (Eterna round: R95, input ligand: none).

With “UUUAGUUCAGGAUAUGAUGAAAUUAACAUGAGGAUCACCCAUGUAGAUCCUGAAUUAACAUCAGAAGGGAACAUUU [JL-ex5-4.44 Brourd mod] (Eterna round: R97, puzzle: Exclusion 5)”, the “apparent KD of MS2 coat protein” value reads like this: (input ligand: FMN 200 uM) 0.0578 µM; (input ligand: none) 0.0108 µM.

With “UUUAGUUCAGGAUAUGUAGAAUUAAACAUGAGGAUCACCCAUGUAGUUCCUGAUCCUGCUACAGAAGGGAACAUUU [Mat - Exclusion 5 - Eli Mod - D13] (Eterna round: R97, puzzle: Exclusion 5)”, the “apparent KD of MS2 coat protein” value was determined as 0.0248 µM (input ligand: FMN 200 uM) and 0.0172 µM (input ligand: none). Turning to “UUUAGUUCAGGAUAUGUAGAUAUUAACAUGAGGAUCACCCAUGUAGAUCCUGAAUUGACUACAGAAGGGAGCAUUU [Mod of Brourd 17 - Jieux - Exclusion 5] (Eterna round: R97, puzzle: Exclusion 5)”, the “apparent KD of MS2 coat protein” value was found to be 0.0447 µM (input ligand: FMN 200 uM) and 0.0177 µM (input ligand: none). For “UUUAUAUAGUAAGGAUAUGUAUUAUGUUUAUCAACAGAAGGUACUGACAUGAGGAUCACCCAUGUUUUAGUGUGGGCAUGUAGU [JMF's solution 95] (Eterna round: R96, puzzle: Exclusion NG 1)”, the “apparent KD of MS2 coat protein” value under setting [2] amounted to 0.181 µM.

For “UUUAUGUCAGGAUAUGAUUAGAUCUACUUUUGUAGAUCUAAUCAGAAGGGACAUGAGGAUCACCCAUGUUUUUU [Ex4 - 3 - 15] (puzzle: Exclusion 4)”, under setting [1], the “apparent KD of MS2 coat protein” value stood at 0.0412 µM. On to “UUUAUUUUGCAAGGAUAUGUUUAAUUUUAGUUUCCUUACACAUGAGGAUCACCCAUGUUAUACUUACAGAAGGUGCGUAAUUUU [Excl-NG2-LRO01] (Eterna round: R96, puzzle: Exclusion NG 2)”, for which, under setting [2], the “apparent KD of MS2 coat protein” value stood at 0.101 µM. Consider “UUUCAUCAUGUAGGAUAUGCGUGGCGAAGCUAUGCAGAAGGACAUGAGGAUCACCCAUGUUCUUGCGUCUGCGUACAGAUGCAA [JL ENG1 1.34] (Eterna round: R96, puzzle: Exclusion NG 1)”, for which the “apparent KD of MS2 coat protein” value is, setting by setting: (input ligand: FMN 200 uM) 0.267 µM; under setting [2], 0.0355 µM; (input ligand: none) 0.043 µM. On to “UUUCUCGUUGUGAGGAUAUCGUUUUUGUCUCGGAUCGAGAAGGCACAUGAGGAUCACCCAUGUUUGUUGUGGUU [JR_BMOE4_Sub089] (puzzle: Brourd's mod of Exclusion 4)”, for which, under setting [1], the “apparent KD of MS2 coat protein” value was 0.0749 µM. For the sequence “UUUCUCUGGGCGUCUUCUUACAUGAGGAUCACCCAUGUUUCGCAGGAUAUGCUAUAGUGUUAGAUGCAGAAGGGCGUUUGUUUU [JR_ExcNG3_Sub079] (Eterna round: R96, puzzle: Exclusion NG 3)”, the “apparent KD of MS2 coat protein” value runs as follows: (input ligand: FMN 200 uM) 0.262 µM; under setting [2], 0.0858 µM; (input ligand: none) 0.0925 µM. The matching figures for “UUUCUUGGGCAAGGAUAUCCUGUGCGGUUCCGGCUCGUGUCUGUCACAUGAGGAUCACCCAUGUGGGAGAAGGUGCCUGCGGUC [Design 82] (Eterna round: R96, puzzle: Exclusion NG 2)”: 0.0144 µM, 0.0112 µM and 0.0149 µM. “UUUGUGUCAGGAUAUGAGUCGUAGAACAAUAGUACUACGUCUCAGAAGGGACAUGAGGAUCACCCAUGUGCCUC [Fiskers Ex 4 Super Stable 44 mod 27] (puzzle: Exclusion 4)”: under setting [1], the “apparent KD of MS2 coat protein” value worked out at 0.0349 µM.

Regarding “UUUUAACAUGAGGAUCACCCAUGUGAGGAUAUCGAAAUUUAUAUUAAUAUUAAUUUUACGAGAAGGCACAUUUU [JMF 34] (puzzle: Exclusion 1)”, under setting [1], the “apparent KD of MS2 coat protein” value worked out at 0.0946 µM.

On to “UUUUAACAUGAGGAUCACCCAUGUGAGGAUAUCGAAAUUUAUAUUAAUAUUAAUUUUUCGAGAAGGCACAUUUU [JMF 33] (puzzle: Exclusion 1)”, for which, under setting [1], the “apparent KD of MS2 coat protein” value was 0.143 µM. With “UUUUAACAUGAGGAUCACCCAUGUGAGGAUAUCGAAAUUUAUAUUAAUAUUUAUUAAUCGAGAAGGCACAUUUU [JMF 60] (puzzle: Exclusion 1)”, the “apparent KD of MS2 coat protein” value under setting [1] was found to be 0.1 µM. “UUUUAACAUGAGGAUCACCCAUGUGAGGAUAUCGAAAUUUAUAUUAAUAUUUAUUUAACGAGAAGGCACAUUUU [JMF 63] (puzzle: Exclusion 1)”: the “apparent KD of MS2 coat protein” value under setting [1] came to 0.0932 µM. On the same count and under the same terms, the same measure for “UUUUAACAUGAGGAUCACCCAUGUGAGGAUAUCGAAAUUUAUAUUAAUAUUUAUUUUUCGAGAAGGCACAUUUU [JMF 65] (puzzle: Exclusion 1)”: 0.157 µM. On the same count and under the same terms, to “UUUUAACAUGAGGAUCACCCAUGUGAGGAUAUCGAAAUUUAUAUUAAUAUUUUUAAUACGAGAAGGCACAUUUU [JMF 70] (puzzle: Exclusion 1)” belongs 0.0496 µM.

In the case of “UUUUAACAUGAGGAUCACCCAUGUGAGGAUAUCGUUAUUUAUAUUAAUAUUAAUAAAACGAGAAGGCACAUUUU [JMF 6] (puzzle: Exclusion 1)”, under setting [1], the “apparent KD of MS2 coat protein” value is 0.117 µM. In the case of “UUUUAACAUGAGGAUCACCCAUGUGAGGAUAUCGUUUUUUUUAUUAAUAUUAAUAAAACGAGAAGGCACAUUUU [JMF 18] (puzzle: Exclusion 1)”, under setting [1], the “apparent KD of MS2 coat protein” value was determined as 0.14 µM. Still for that read-out and setting: the same measure for “UUUUACAUAGGAUAUAGUUUGUUGUACAUGAGGAUCACCCAUGUUUUUGGUUGUGCUUUUCUAGAAGGAUGUUUCU [JR_E5_Sub015] (puzzle: Exclusion 5)”: 0.0438 µM; for “UUUUAGACAGGAUAUACAUUUUUUUAUUUAUUUAUAAUAUUACAUGAGGAUCACCCAUGUAGAAGGGUCAUUUU [My Design] (puzzle: Exclusion 2)”: 0.0371 µM. With “UUUUAGUCAGGAUAUACAUGAGGAUCACCCAUGUAAAAUUUUAAUUUAAUUUGAAGGUGUAGAAGGGACAAUUU [Ex3 #39] (Eterna round: R97, puzzle: Exclusion 3)”, the “apparent KD of MS2 coat protein” value runs as follows: (input ligand: FMN 200 uM) 0.0227 µM; (input ligand: none) 0.0358 µM. In the same order, the values of “UUUUAGUCAGGAUAUACAUGAGGAUCACCCAUGUAAAAUUUUAAUUUAAUUUUAAGGUGUAGAAGGGACAUUUU [Ex3 #5] (Eterna round: R97, puzzle: Exclusion 3)” are 0.0245 µM and 0.0276 µM. In the same order, the values of “UUUUAGUCAGGAUAUACAUGAGGAUCACCCAUGUAAAAUUUUAAUUUAAUUUUAAGGUGUAGAAGGGACCACCC [Ex3 #14] (Eterna round: R97, puzzle: Exclusion 3)” are 0.0312 µM and 0.0355 µM. In the same order, the values of “UUUUCGUAAGGAUAUGGUUAGAUCUACGAAAGUAGAUCUAACCAGAAGGUACAUGAGGAUCACCCAUGUUGAUA [Mod of Brourd 21 - Jieux - Exclusion 4] (Eterna round: R97, puzzle: Exclusion 4)” are 0.032 µM and 0.0225 µM. In the case of “UUUUCUUUUGUGAGGAUAUACUUGUUUUUUUUUUUGUAGAAGGCACAUGAGGAUCACCCAUGUUUUCUUUCCUG [JR_BME4_Sub025] (puzzle: Brourd's mod of Exclusion 4)”, the “apparent KD of MS2 coat protein” value under setting [1] worked out at 0.0201 µM. Turning to “UUUUGGCAGGCUAUUAUUAACAUGAGGAUCACCCAUGUGCAUCCAAAAUUACUUUUAGAUCUUGCUGGUCUUAUAUA [JR_STOV1_Sub085] (Eterna round: R97, puzzle: Sensor, turn-off variant 1)”, the “apparent KD of MS2 coat protein” value reads like this: (input ligand: FMN 200 uM) 0.284 µM; (input ligand: none) 0.33 µM. “UUUUUAAAUGAAGGAUAUACUUAACAUGAGGAUCACCCAUGUGGUGUUGUGAGUGAGUGAGUUUAGUAGAAGGUCAAUUAUUUU [JMF's solution 20] (Eterna round: R96, puzzle: Exclusion NG 2)”: the “apparent KD of MS2 coat protein” value (input ligand: FMN 200 uM) turned out to be 1.02 µM, the “apparent KD of MS2 coat protein” value under setting [2] is 0.287 µM and the “apparent KD of MS2 coat protein” value (input ligand: none) was found to be 0.288 µM.

On to “UUUUUACAUGAGGAUCACCCAUGUCAGGAUAUGAUUAUAUUUUAUUAUUUUAUUUUUUUCAGAAGGGACUAUUA [My solution] (puzzle: Exclusion 1)”, for which the “apparent KD of MS2 coat protein” value under setting [1] came out at 0.0806 µM. For the sequence “UUUUUAGAUGAAGGAUAUACUUAACAUGAGGAUCACCCAUGUGGUGUUGUGAGUGAGUGAGUUUAGUAGAAGGUCAAUUCUUUU [JMF's solution 87] (Eterna round: R96, puzzle: Exclusion NG 2)”, the “apparent KD of MS2 coat protein” value is, setting by setting: (input ligand: FMN 200 uM) 0.566 µM; under setting [2], 0.311 µM; (input ligand: none) 0.346 µM. In the same order, the values of “UUUUUAUAUGAAGGAUAUACUUAACAUGAGGAUCACCCAUGUGGUGUUGUGAGUGAGUGAGUUUAGUAGAAGGUCAAGUAUUUG [JMF's solution 42] (Eterna round: R96, puzzle: Exclusion NG 2)” are 0.689 µM, 0.204 µM and 0.342 µM. The matching figures for “UUUUUAUAUGAAGGAUAUACUUAACAUGAGGAUCACCCAUGUGGUGUUGUGAGUGAGUGAGUUUAGUAGAAGGUCAAGUAUUUU [JMF's solution 8] (Eterna round: R96, puzzle: Exclusion NG 2)”: 0.431 µM, 0.265 µM and 0.431 µM. The matching figures for “UUUUUAUAUGAAGGAUAUACUUAACAUGAGGAUCACCCAUGUGGUGUUGUGAGUGAGUGAGUUUAGUAGAAGGUCAAUGAUUUA [JMF's solution 62] (Eterna round: R96, puzzle: Exclusion NG 2)”: 1.21 µM, 0.414 µM and 0.354 µM.
